Results on three molecules are retold here after US20240100162A1.

The labels stand for the following.
B1: TCR1 (TCR)
TCR alpha: KQEVTQIPAALSVPEGENLVLNCSFTDSAIYNLQWFRQDPGKGLTSLLLIQSSQREQTSGRLNASLDKSSGRSTLYIAASQPGDSATYLCAAMKTSYDKVIFGPGTSLSVIPNIQNPDPAVYQLRDSKSSDKSVCLFTDFDSQTNVSQSKDSDVYITDKTVLDMRSMDFKSNSAVAWSNKSDFACANAFNNSIIPEDTFFPSPESSCDVKLVEKSFETDTNLNFQNLSVIGFRILLLKVAGFNLLMTLRLWSS
TCR beta: GEEVAQTPKHLVRGEGQKAKLYCAPIKGHSYVFWYQQVLKNEFKFLISFQNENVFDETGMPKERFSAKCLPNSPCSLEIQATKLEDSAVYFCASSQGQGGYGYTFGSGTRLTVVEDLNKVFPPEVAVFEPSEAEISHTQKATLVCLATGFFPDHVELSWWVNGKEVHSGVSTDPQPLKEQPALNDSRYCLSSRLRVSATFWQNPRNHFRCQVQFYGLSENDEWTQDRAKPVTQIVSAEAWGRADCGFTSVSYQQGVLSATILYEILLGKATLYAVLVSALVLMAMVKRKDF
B2: TCR2 (TCR)
TCR alpha: QKEVEQNSGPLSVPEGAIASLNCTYSDRGSQSFFWYRQYSGKSPELIMSIYSNGDKEDGRFTAQLNKASQYVSLLIRDSQPSDSATYLCAVNIPFSNSGGYQKVTFGTGTKLQVIPNIQNPDPAVYQLRDSKSSDKSVCLFTDFDSQTNVSQSKDSDVYITDKTVLDMRSMDFKSNSAVAWSNKSDFACANAFNNSIIPEDTFFPSPESSCDVKLVEKSFETDTNLNFQNLSVIGFRILLLKVAGFNLLMTLRLWSS
TCR beta: NAGVTQTPKFRVLKTGQSMTLLCAQDMNHEYMYWYRQDPGMGLRLIHYSVGEGTTAKGEVPDGYNVSRLKKQNFLLGLESAAPSQTSVYFCASRHPGQYNQPQHFGDGTRLSILEDLNKVFPPEVAVFEPSEAEISHTQKATLVCLATGFFPDHVELSWWVNGKEVHSGVSTDPQPLKEQPALNDSRYCLSSRLRVSATFWQNPRNHFRCQVQFYGLSENDEWTQDRAKPVTQIVSAEAWGRADCGFTSVSYQQGVLSATILYEILLGKATLYAVLVSALVLMAMVKRKDF
B3: TCR3 (TCR)
TCR alpha: AQKVTQAQTEISVVEKEDVTLDCVYETRDTTYYLFWYKQPPSGELVFLIRRNSFDEQNEISGRYSWNFQKSTSSFNFTITASQVVDSAVYFCALSVLRMDSSYKLIFGSGTRLLVRPDIQNPDPAVYQLRDSKSSDKSVCLFTDFDSQTNVSQSKDSDVYITDKTVLDMRSMDFKSNSAVAWSNKSDFACANAFNNSIIPEDTFFPSPESSCDVKLVEKSFETDTNLNFQNLSVIGFRILLLKVAGFNLLMTLRLWSS
TCR beta: NAGVTQTPKFRVLKTGQSMTLLCAQDMNHEYMYWYRQDPGMGLRLIHYSVGEGTTAKGEVPDGYNVSRLKKQNFLLGLESAAPSQTSVYFCASSLQGAGQPQHFGDGTRLSILEDLNKVFPPEVAVFEPSEAEISHTQKATLVCLATGFFPDHVELSWWVNGKEVHSGVSTDPQPLKEQPALNDSRYCLSSRLRVSATFWQNPRNHFRCQVQFYGLSENDEWTQDRAKPVTQIVSAEAWGRADCGFTSVSYQQGVLSATILYEILLGKATLYAVLVSALVLMAMVKRKDF

Where only a bound is given, the exact number is not on record here.

In this assay the target is highly frequent MHC Class I alleles in major US ethnic groups, including 38 HLA-A, 40 HLA-B, and 24 HLA-C alleles, on a panel of 34 BLCLs. In words: cell-based or functional assay.
Consider B1, for which the cytokine (IFNg, TNFa, IL-12p70) and granzyme B production in co-culture with BLCLs, fold over IL12-RFP control T cells was below 4 fold. Next, B2: below 4 fold; B3: below 4 fold.
